Assays:
Assay in all cases: holdup assay
Conditions in all cases: plain residues with an end cap or a label only (N-terminal biotin on a linker: (peg)3)
MAGI1_3, Q96QZ7 = target: MAGI1_3, Q96QZ7
NHERF2_1, Q15599 = target: NHERF2_1, Q15599
DLG5_2, Q8TDM6 = target: DLG5_2, Q8TDM6
TJP1_1, Q07157 = target: TJP1_1, Q07157
PARD3_1, Q8TEW0 = target: PARD3_1, Q8TEW0
PDLIM4, P50479 = target: PDLIM4, P50479
DVL1, O14640 = target: T1, DVL1, O14640
T1 sequence (O14640 246-333, limits assumed, looked up): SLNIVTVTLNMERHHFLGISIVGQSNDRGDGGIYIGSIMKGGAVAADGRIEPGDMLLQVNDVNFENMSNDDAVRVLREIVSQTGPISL

SHROOM2, Q13796 = target: T2, SHROOM2, Q13796
T2 sequence (Q13796 21-118, limits assumed, looked up): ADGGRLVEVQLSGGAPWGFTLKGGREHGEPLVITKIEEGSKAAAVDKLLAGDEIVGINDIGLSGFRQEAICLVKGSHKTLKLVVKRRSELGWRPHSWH

PTPN13_4, Q12923 = target: T3, PTPN13_4, Q12923
T3 sequence (Q12923 1783-1878, limits assumed, looked up): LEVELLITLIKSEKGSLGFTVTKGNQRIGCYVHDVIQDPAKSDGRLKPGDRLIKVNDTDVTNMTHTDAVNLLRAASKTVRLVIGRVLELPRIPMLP

MAGI1_6, Q96QZ7 = target: MAGI1_6, Q96QZ7
PDZD2_4, O15018 = target: T4, PDZD2_4, O15018
T4 sequence (O15018 723-823, limits assumed, looked up): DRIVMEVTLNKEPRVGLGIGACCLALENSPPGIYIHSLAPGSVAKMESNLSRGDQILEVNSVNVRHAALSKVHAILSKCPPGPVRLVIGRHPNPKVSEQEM

MPP1, Q00013 = target: T5, MPP1, Q00013
T5 sequence (Q00013 66-162, limits assumed, looked up): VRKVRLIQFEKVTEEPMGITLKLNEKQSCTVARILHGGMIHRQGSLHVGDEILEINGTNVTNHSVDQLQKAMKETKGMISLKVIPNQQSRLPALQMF

MLLT4, P55196 = target: T6, MLLT4, P55196
T6 sequence (P55196 1002-1103, limits assumed, looked up): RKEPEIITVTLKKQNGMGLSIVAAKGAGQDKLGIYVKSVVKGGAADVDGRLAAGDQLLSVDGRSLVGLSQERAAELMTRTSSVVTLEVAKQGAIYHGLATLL

SHROOM3, Q8TF72 = target: T7, SHROOM3, Q8TF72
T7 sequence (Q8TF72 20-120, limits assumed, looked up): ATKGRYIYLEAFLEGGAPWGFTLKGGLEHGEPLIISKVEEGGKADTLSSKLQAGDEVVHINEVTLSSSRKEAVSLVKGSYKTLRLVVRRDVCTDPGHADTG

SCRIB_4, Q14160 = target: SCRIB_4, Q14160
RIMS1, Q86UR5 = target: RIMS1, Q86UR5
PDZD2_1, O15018 = target: T8, PDZD2_1, O15018
T8 sequence (O15018 80-192, limits assumed, looked up): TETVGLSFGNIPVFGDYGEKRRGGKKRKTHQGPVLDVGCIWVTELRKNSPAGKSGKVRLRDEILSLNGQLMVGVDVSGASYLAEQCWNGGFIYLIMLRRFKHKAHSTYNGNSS

CNKSR3, Q6P9H4 = target: CNKSR3, Q6P9H4
SYNPO2L, Q9H987 = target: T9, SYNPO2L, Q9H987
T9 sequence (Q9H987 1-98, limits assumed, looked up): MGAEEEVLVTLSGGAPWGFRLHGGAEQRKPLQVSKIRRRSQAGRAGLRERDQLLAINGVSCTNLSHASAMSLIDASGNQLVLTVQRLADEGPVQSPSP

MAGI3_3, Q5TCQ9 = target: MAGI3_3, Q5TCQ9
PARD3B_3, Q8TEW8 = target: PARD3B_3, Q8TEW8
PARD6G, Q9BYG4 = target: T10, PARD6G, Q9BYG4
T10 sequence (Q9BYG4 153-261, limits assumed, looked up): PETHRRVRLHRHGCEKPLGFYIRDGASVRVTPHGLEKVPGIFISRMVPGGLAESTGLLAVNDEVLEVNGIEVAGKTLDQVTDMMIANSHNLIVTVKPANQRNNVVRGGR

PDLIM3, Q53GG5 = target: T11, PDLIM3, Q53GG5
T11 sequence (Q53GG5 1-94, limits assumed, looked up): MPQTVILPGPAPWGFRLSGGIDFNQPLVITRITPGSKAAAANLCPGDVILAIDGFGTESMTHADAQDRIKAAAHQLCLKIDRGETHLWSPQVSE

GIPC3, Q8TF64 = target: GIPC3, Q8TF64
TJP3_1, O95049 = target: T12, TJP3_1, O95049
T12 sequence (O95049 6-103, limits assumed, looked up): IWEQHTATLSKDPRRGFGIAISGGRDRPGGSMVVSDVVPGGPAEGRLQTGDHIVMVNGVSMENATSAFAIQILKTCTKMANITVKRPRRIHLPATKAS

RGS3, P49796-9 = target: RGS3, P49796-9
Chain of RGS3, P49796-9 (P49796 other isoform, or with tags, fused parts or gaps): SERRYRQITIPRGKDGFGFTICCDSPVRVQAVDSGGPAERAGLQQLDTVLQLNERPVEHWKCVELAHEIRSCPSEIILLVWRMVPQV

Chain of RIMS1, Q86UR5 (Q86UR5 584-692): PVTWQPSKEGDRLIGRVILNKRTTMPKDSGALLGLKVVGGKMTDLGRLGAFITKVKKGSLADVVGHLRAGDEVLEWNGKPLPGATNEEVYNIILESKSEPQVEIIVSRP
Chain of MAGI3_3, Q5TCQ9 (Q5TCQ9 572-655): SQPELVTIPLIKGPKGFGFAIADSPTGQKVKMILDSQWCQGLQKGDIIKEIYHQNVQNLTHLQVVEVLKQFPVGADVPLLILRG
Chain of PDLIM4, P50479 (P50479 1-83): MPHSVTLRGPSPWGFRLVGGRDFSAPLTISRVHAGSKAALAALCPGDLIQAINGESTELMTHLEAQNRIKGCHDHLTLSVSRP
Chain of PARD3_1, Q8TEW0 (Q8TEW0 264-372): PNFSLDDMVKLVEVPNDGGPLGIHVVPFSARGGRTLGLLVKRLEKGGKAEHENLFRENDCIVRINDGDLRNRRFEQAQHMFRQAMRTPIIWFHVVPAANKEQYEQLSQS
Chain of GIPC3, Q8TF64 (Q8TF64 107-202): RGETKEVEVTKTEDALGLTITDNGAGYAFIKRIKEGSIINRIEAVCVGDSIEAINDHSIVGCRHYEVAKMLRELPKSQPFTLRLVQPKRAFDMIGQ
Chain of CNKSR3, Q6P9H4 (Q6P9H4 203-303): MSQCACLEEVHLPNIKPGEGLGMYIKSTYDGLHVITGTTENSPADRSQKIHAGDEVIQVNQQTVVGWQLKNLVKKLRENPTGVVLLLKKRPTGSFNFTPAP
Chain of TJP1_1, Q07157 (Q07157 18-120): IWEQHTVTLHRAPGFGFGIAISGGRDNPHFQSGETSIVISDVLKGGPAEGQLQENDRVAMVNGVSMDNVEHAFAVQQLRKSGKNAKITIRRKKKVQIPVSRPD
Chain of SCRIB_4, Q14160 (Q14160 1095-1204): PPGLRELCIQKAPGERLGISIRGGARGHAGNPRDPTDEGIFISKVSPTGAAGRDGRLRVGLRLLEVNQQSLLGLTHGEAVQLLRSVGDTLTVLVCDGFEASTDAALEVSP
Chain of MAGI1_6, Q96QZ7 (Q96QZ7 1146-1238): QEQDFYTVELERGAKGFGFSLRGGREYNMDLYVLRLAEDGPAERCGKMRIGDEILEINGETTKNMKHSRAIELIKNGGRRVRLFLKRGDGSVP
Chain of MAGI1_3, Q96QZ7 (Q96QZ7 638-725): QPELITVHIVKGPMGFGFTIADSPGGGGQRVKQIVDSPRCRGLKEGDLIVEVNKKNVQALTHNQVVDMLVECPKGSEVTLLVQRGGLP
Chain of DLG5_2, Q8TDM6 (Q8TDM6 714-800): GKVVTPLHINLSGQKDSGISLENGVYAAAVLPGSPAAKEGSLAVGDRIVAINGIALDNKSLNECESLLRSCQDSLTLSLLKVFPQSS
Chain of PARD3B_3, Q8TEW8 (Q8TEW8 490-594): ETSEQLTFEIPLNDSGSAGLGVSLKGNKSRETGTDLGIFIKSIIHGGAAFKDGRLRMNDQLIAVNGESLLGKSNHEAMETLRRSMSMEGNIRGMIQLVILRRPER
Chain of NHERF2_1, Q15599 (Q15599 9-91): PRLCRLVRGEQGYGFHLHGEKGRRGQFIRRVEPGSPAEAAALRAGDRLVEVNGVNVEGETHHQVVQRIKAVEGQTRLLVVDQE

NLNSSEGVPDLLV [SARS-CoV-E, P59637] was tested, and the pKd (MAGI1_3, Q96QZ7) was “below the threshold”, the pKd (NHERF2_1, Q15599) was “below the threshold” and the pKd (DLG5_2, Q8TDM6) was “below the threshold”. For the same binder, the pKd (TJP1_1, Q07157) was “below the threshold”, the pKd (PARD3_1, Q8TEW0) was 3.79 and the pKd (PDLIM4, P50479) was “below the threshold”. The pKd (DVL1, O14640) was “below the threshold”, the pKd (SHROOM2, Q13796) was “below the threshold” and the pKd (PTPN13_4, Q12923) was 4.64. For the same binder, the pKd (MAGI1_6, Q96QZ7) was “below the threshold”, the pKd (PDZD2_4, O15018) was “below the threshold” and the pKd (MPP1, Q00013) was “below the threshold”. The pKd (MLLT4, P55196) was 4.31, the pKd (SHROOM3, Q8TF72) was “below the threshold” and the pKd (SCRIB_4, Q14160) was “below the threshold”. For the same binder, the pKd (RIMS1, Q86UR5) was “below the threshold”, the pKd (PDZD2_1, O15018) was “below the threshold” and the pKd (CNKSR3, Q6P9H4) was “below the threshold”. The pKd (SYNPO2L, Q9H987) was “below the threshold”, the pKd (MAGI3_3, Q5TCQ9) was 3.85 and the pKd (PARD3B_3, Q8TEW8) was “below the threshold”. The pKd (PARD6G, Q9BYG4) was “below the threshold”, the pKd (PDLIM3, Q53GG5) was “below the threshold” and the pKd (GIPC3, Q8TF64) was “below the threshold”. For the same binder, the pKd (TJP3_1, O95049) was “below the threshold” and the pKd (RGS3, P49796-9) was “below the threshold”.
